Data published in PMC6954417, “DSS1 interacts with and stimulates RAD52 to promote the repair of DSBs” (Nucleic Acids Research, 2019).

Molecular target: T1, GST-DSS1 (human, UniProt P60896 1-70)
T1 construct: DSS1, human; expressed from pGEX-KG; NMR numbering runs from M1 to three residues after M67; also called recombinant GST-DSS1 protein; source: E. coli BL21 (DE3), purified (Glutathione 4B-Sepharose, MonoQ); not shown: GST, N-terminal, kept
Experiment: pull-down; quantitative: GST-DSS1 4 uM on GST beads, increasing His6-RAD52, 20 mM Tris-acetate pH 7.5, 100 mM KCl, 0.01% NP40, 1 mM DTT, 1 h, 4°C; band intensities normalised to 6 uM His6-RAD52
Details: both partners purified

T1 sequence (P60896 whole entry): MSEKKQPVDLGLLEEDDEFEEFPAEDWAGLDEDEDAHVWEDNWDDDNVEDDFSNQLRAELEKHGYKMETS

stoichiometry N: 1
B1: His6-RAD52 (natural protein, human, UniProt P43351 1-418, looked up)
chain: MSGTEEAILGGRDSHPAAGGGSVLCFGQCQYTAEEYQAIQKALRQRLGPEYISSRMAGGGQKVCYIEGHRVINLANEMFGYNGWAHSITQQNVDFVDLNNGKFYVGVCAFVRVQLKDGSYHEDVGYGVSEGLKSKALSLEKARKEAVTDGLKRALRSFGNALGNCILDKDYLRSLNKLPRQLPLEVDLTKAKRQDLEPSVEEARYNSCRPNMALGHPQLQQVTSPSRPSHAVIPADQDCSSRSLSSSAVESEATHQRKLRQKQLQQQFRERMEKQQVRVSTPSAEKSEAAPPAPPVTHSTPVTVSEPLLEKDFLAGVTQELIKTLEDNSEKWAVTPDAGDGVVKPSSRADPAQTSDTLALNNQMVTQNRTPHSVCHQKPQAKSGSWDLQTYSADQRTTGNWESHRKSQDMKKRKYDPS
notes: RAD52, human, with His6 tag; not shown: His6, N-terminal, kept
